Measured values published in patent US20150125449A1 (published 2015).

B1: OA2-Fab-Her2 (antibody)
chain 1: not shown
chain 2: not shown
chain 3: EPKSSDKTHTCPPCPAPELLGGPSVFLFPPKPKDTLMISRTPEVTCVVVDVSHEDPEVKFNWYVDGVEVHNAKTKPREEQYNSTYRVVSVLTVLHQDWLNGKEYKCKVSNKALPAPIEKTISKAKGQPREPQVYVYPPSRDELTKNQVSLTCLVKGFYPSDIAVEWESNGQPENNYKTTPPVLDSDGSFALVSKLTVDKSRWQQGNVFSCSVMHEALHNHYTQKSLSLSPGK
B2: OA4-scFv-BID2 (antibody)
chain 1: QVQLVQSGAEVKKPGESLKISCKGSGYSFTSYWIAWVRQMPGKGLEYMGLIYPGDSDTKYSPSFQGQVTISVDKSVSTAYLQWSSLKPSDSAVYFCARHDVGYCTDRTCAKWPEWLGVWGQGTLVTVSSGGGGSSGGGSGGGGSQSVLTQPPSVSAAPGQKVTISCSGSSSNIGNNYVSWYQQLPGTAPKLLIYDHTNRPAGVPDRFSGSKSGTSASLAISGFRSEDEADYYCASWDYTLSGWVFGGGTKLTVLGAAEPKSSDKTHTCPPCPAPELLGGPSVFLFPPKPKDTLMISRTPEVTCVVVDVSHEDPEVKFNWYVDGVEVHNAKTKPREEQYNSTYRVVSVLTVLHQDWLNGKEYKCKVSNKALPAPIEKTISKAKGQPREPQVYTYPPSRDELTKNQVSLTCLVKGFYPSDIAVEWESNGQPENNYKTTPPVLDSDGSFALVSKLTVDKSRWQQGNVFSCSVMHEALHNHYTQKSLSLSPGK
chain 2: not shown

Legend:
[1] = target: T1, Her2 on the surface of Her2-expressing cell lines (human, UniProt P04626 23-1255); assay: flow cytometry, SKOV3 cells
T1 construct: whole, on cells; The cell line of each value is named under assay; also called ErbB2; Her2 receptor

[2] = target: T1, Her2 on the surface of Her2-expressing …; assay: flow cytometry, SKBR3 cells
[3] = target: T1, Her2 on the surface of Her2-expressing …; assay: flow cytometry, MDA-MB-231 cells
[4] = target: Recombinant human HER2 (human, UniProt P04626 23-652); assay: SPR, antibody captured on anti-human IgG, recombinant human HER2 as analyte, 1:1 Langmuir; average, n 4
[5] = target: T1, Her2 on the surface of Her2-expressing …; assay: flow cytometry, SKOV3 cells; remark: listed apart in the source

Binder | Bmax [1] | Kd [1] [nM] | Bmax [2] | Kd [2] [nM] | Bmax [3] | Kd [3] [nM] | Kd [4] [nM] | koff [4] [s⁻¹] | kon [4] [M⁻¹ s⁻¹] | Bmax [5]
B1 | 7070 | 4.72 | 64800 | 10.8 | 412 | 9.97 | 0.435 | 0.000131 | 313000 | –
B2 | – | – | – | – | – | – | – | – | – | 7950
